Literature values as cited in US20140303060A1, “PROCESS FOR DEGRADING A BIOFILM ON SURFACES OF OBJECTS” (Fraunhofer Gesellschaft Zur Foerderung der angwandten …, priority 2011, published 2014).

lysostaphin: zinc-dependent enzyme that cleaves the pentaglycine cross bridges of the bacterial cell wall
effect of repeated freezing and thawing on activity: reduction of activity
